US20070178531A1 (BIOCHECK, published 2007)

T1: Human Id1: Histidine (human, UniProt P41134 1-155, limits assumed)
T1 construct: Fusion protein made in E. coli from vector pGW07; also called h-Id1: his; not shown: His tag
T1 sequence (looked up): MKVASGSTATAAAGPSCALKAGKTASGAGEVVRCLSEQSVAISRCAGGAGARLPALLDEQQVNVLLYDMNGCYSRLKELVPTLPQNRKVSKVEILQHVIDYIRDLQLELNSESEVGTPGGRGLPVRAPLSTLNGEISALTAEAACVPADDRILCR

T2: Human Id2: Histidine (human, UniProt Q02363 1-134, limits assumed)
T2 construct: Fusion protein made in E. coli from vector pGW07; also called h-Id2: His; not shown: His tag
T2 sequence (looked up): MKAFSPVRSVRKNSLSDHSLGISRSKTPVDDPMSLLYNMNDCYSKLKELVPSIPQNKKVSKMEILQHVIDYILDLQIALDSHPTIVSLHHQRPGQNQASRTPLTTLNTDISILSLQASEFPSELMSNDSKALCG

T3: Mouse Id3: Histidine (mouse, UniProt P41133 1-119)
T3 construct: Fusion protein made in E. coli from vector pGW07; also called m-Id3: His; Mouse Id3 (coated wells); not shown: His tag
T3 sequence: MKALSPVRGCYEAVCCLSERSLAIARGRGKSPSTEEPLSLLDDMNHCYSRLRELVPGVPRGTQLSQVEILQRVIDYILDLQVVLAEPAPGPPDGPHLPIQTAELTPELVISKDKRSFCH

T4: Human Id3: Histidine (human, UniProt Q02535 1-119 at identity 1.00))
T4 construct: Fusion protein made in E. coli from vector pGW07; also called h-Id3: His; Human Id3 (coated wells); not shown: His tag
T4 chain: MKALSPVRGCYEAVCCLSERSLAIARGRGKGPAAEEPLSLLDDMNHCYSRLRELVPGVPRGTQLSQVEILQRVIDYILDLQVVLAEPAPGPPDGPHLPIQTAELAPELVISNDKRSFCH

T5: human Id3 protein (human, UniProt Q02535 1-119 at identity 1.00))
T5 chain: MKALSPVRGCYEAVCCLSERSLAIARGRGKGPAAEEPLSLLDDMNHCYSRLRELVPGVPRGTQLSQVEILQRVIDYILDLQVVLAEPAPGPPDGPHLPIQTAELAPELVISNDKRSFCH

T6: mouse Id3 protein (mouse, UniProt P41133 1-119)
T6 sequence: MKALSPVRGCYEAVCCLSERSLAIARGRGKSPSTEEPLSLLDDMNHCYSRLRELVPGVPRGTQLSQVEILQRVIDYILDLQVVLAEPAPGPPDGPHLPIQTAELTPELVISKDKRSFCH


Columns and labels:
Human Id1: Histidine [1] = molecular target: T1, Human Id1: Histidine; test: ELISA, Ab 0.250 µg/ml
Method: The rabbit monoclonal anti-human Id3 (clone #3-3) and the rabbit monoclonal anti-mouse/human Id3 (clones #6-1, 16-1, 17-3, and 42-1) produced in Example 6 were tested reactivity against the following antigens: mouse Id1:His, human Id1:His, mouse Id2:His, human Id2:His, mouse Id3:His, human Id3:His, mouse Id4:His, human Id4:His and GST.
1. Microtiter wells (prepared in accordance with Example 6) were coated (0.1 μg/well) with mouse Id1:His, human Id1:His, human Id2:His, human Id3:His, and 1.0 μg/well with GST. [0155] 2. Antibody Diluent: 0.25% (w/v) BSA in 0.015M KPO₄ Buffer, 0.85% (w/v) NaCl, 0.1% (w/v) NaN₃, pH=7.40 [0156] 3. Rabbit monoclonal anti-human Id3 (clone #3-3) prepared in Example 7 was diluted to […] with the antibody diluent. […] 4. Rabbit monoclonal anti-mouse/human Id3 (clones #6-1, 16-1, 17-3, 42-1) prepared in Example 7 was diluted to 0.005, 0.010, 0.025, 0.05, 0.10, 0.25, and 0.50 μg/ml with the antibody diluent. […] 5. Conjugate Diluent: 50% (v/v) which consists of an aqueous solution containing Fetal Bovine Serum in 0.05 M Tris, 1% (v/v) Proclin-300, pH 7.6. [0159] 6. Conjugate: Goat anti-rabbit IgG (H+L)-HRP conjugate. [0160] 7. TMB reagent. […] 8. Stop solution (1 N HCI). Method
1. Dispense 100 μL of antibody diluent, diluted rabbit monoclonal human Id3, and mouse/human Id3 hybridoma supernatants into appropriate wells. […] 2. Incubate at room temperature with mechanical shaking at 750 rpm for 90 minutes. [0165] 3. Remove the incubation mixture by flicking plate content into an appropriate waste container followed by rinsing the wells 5 times with distilled water. [0166] 4. Strike the wells sharply onto absorbent paper or paper towels to remove all residual water droplets. [0167] 5. Dispense 100 μL of 1:50,000 Goat Anti-Rabbit IgG-HRP Conjugate Reagent into each well. Gently mix for 5 seconds. [0168] 6. Incubate at room temperature with mechanical shaking at 750 rpm for 90 minutes. [0169] 7. Repeat procedures 3 and 4. [0170] 8. Dispense 100 μL of TMB Reagent into each well. Gently mix for 5 seconds. [0171] 9. Incubate at room temperature with mechanical shaking at 750 rpm for 20 minutes. […] 10.

Human Id1: Histidine [2] = molecular target: T1, Human Id1: Histidine; test: ELISA on coated wells, summary
Human Id2: Histidine = molecular target: T2, Human Id2: Histidine; test: ELISA on coated wells, summary
Mouse Id3: Histidine = molecular target: T3, Mouse Id3: Histidine; test: ELISA on coated wells, summary
Human Id3: Histidine = molecular target: T4, Human Id3: Histidine; test: ELISA on coated wells, summary
human Id3 protein = molecular target: T5, human Id3 protein; test: SPR (BIACORE 2000), antibody immobilized on CM5, Id3 as analyte, 1:1 Langmuir
Method: (§1) Antibodies were immobilized on CM5 sensor chips. All SPR (surface plasmon resonance) assays were carried out in a BIACORE 2000 instrument. A mouse monoclonal antibody was used as reference labeled at the 2nd channel (Fc2) of the chip. Rabbit monoclonal anti-human Id3 (BCH-4/#3-3) or Rabbit monoclonal anti-mouse/human Id3 (BCH-4/#6-1, #16-1 and #17-3) was immobilized on the 4th (Fc4) channel. Final conjugation of antibodies on chip surface was 1878 RU for BCH-4#3-3, BCH-4/#6-1, BCH-4/#16-1, or BCH-3/#17-3. Mouse Id-3 and human Id-3 were applied as mobile analytes. The binding assays were carried out in HBS-P buffer (10 mM HEPES, pH 7.4, containing 150 mM sodium chloride, 0.005% surfactant P-20 detergent and 0.12% glycerol). Kinetics were determined with 8 different analyte concentrations ranging from 3.4 nM to 573 nM. For analyses, 125 μl of analyte were injected (Kinject protocol) at 30 μl/min and the dissociation lasted for 240 seconds at the same flow rate. The surface was regenerated by washing with 50 μl solution of 100 mM glycine and 100 mM of HCl, pH 1.81, at 60 μl/min and the extra cleaning protocol was followed. The kinetic analyses of sensograms were based on the Langmuir (1:1) binding model. Both association rate constant and dissociation rate constants for the interaction of mouse Id-3 and human Id-3 with the immobilized antibodies were determined from the analysis of sensograms using the Biaevaluation software, version 3.0. All binding curves were corrected for background and bulk refractive index contribution by subtraction of the reference flow cells. Models were fitted globally across the data sets. All experiments and analyses were duplicated.

mouse Id3 protein = molecular target: T6, mouse Id3 protein; test: as above
Method: as §1

Binder | A450 (Human Id1: Histidine [1]) | Cross-reactivity (%) (Human Id1: Histidine [2]) | Cross-reactivity (%) (Human Id2: Histidine) | Cross-reactivity (%) (Mouse Id3: Histidine) | Cross-reactivity (%) (Human Id3: Histidine) | Ka (human Id3 protein) | Ka (mouse Id3 protein)
rabbit monoclonal anti-human Id3, clone #BCH-4/#3-3 (antibody, V domains shown, Rabbit IgG from a rabbit hybridoma; also called h Id3 MoAb 3-3) VH: QSVEESGGRLVTPGTPLTLTCTVSGIDLSSYAMSWVRQAPGKGLEWIGVIFPSNNVYYASWAKGRFTISKTSTTVDLKITSPTTEDTATYFCASMGAFDSWGPGTLVTVSS VL: QVLTQTPSPVSAAVGGTVTINCQASQSIYNDNDLAWFQQKPGQPPKLLIYDASTLTSGVPSRFKGSGSGTQFTLTISDLDCDDAATYYCAARYSGNIYGFGGGTEVVVK | 0.047 A450 |  |  |  |  |  | 
rabbit monoclonal anti-mouse/human Id3, clone #BCH-4/#16-1 (antibody, V domains shown, Rabbit IgG from a rabbit hybridoma; also called m/h Id3 MoAb 16-1) VH: QSVEESGGRLVTPGTPLTLTCTASGFSLSSYYIHWVRQAPGKALEWIGYISDGGTTYYASWAKGRFTISKTSSTTVDLKMTSLTTEDTATYFCARQGFNIWGPGTLVTVSL VL: AVLTQTPSPVSAAVGGTVTISCQSSQSVYNNNWLSWFQQKSGQPPKLLIYETSKLESGVPSRFKGSGSGTQFTLTIIDVQCDDAATYYCLGGYWTTSDNNIFGGGTEVVVK | 0.045 A450 | < 1% | < 1% | 100% | 100% | 1.89e+11 M⁻¹ | 2.42e+09 M⁻¹
rabbit monoclonal anti-mouse/human Id3, clone #BCH-4/#17-3 (antibody, V domains shown, Rabbit IgG from a rabbit hybridoma; also called m/h Id3 MoAb 17-3; BCH-3/#17-3) VH: QSVEESGGRLVTPGTPLTLTCTASGFSLSNVYIHWVRQAPGKGLEWIGYISDGDTARYATWAKGRFTISKTSSTTVNLKMTSLTTEDTATYFCARQGFNIWGPGTLVTVSL VL: AVLTQTPSPVSAAVGGTVSISCQSSQSVWNNNWLSWFQQKPGQPPKLLIYETSKLESGVPSRFKGSGSGTQFTLTISDVQCDDAATYYCLGGYWTTSDNNVFGGGTEVVVK | 0.045 A450 | < 1% | < 1% | 100% | 100% | 7.35e+10 M⁻¹ | 3.32e+11 M⁻¹
rabbit monoclonal anti-mouse/human Id3, clone #BCH-4/#6-1 (antibody, V domains shown, Rabbit IgG from a rabbit hybridoma; also called m/h Id3 MoAb 6-1) VH: QSVEESGGRLVTPGTPLTLTCTASGFSLSNVYIHWVRQAPGKGLEWIGYISDGDTARYATWAKGRFTISKTSSTTVNLKMTSLTTEDTATYFCARQGFNIWGPGTLVTVSL VL: AVLTQTPSPVSAAVGGTVSISCQSSQSVWNNNWLSWFQQKPGQPPKLLIYETSKLESGVPSRFKGSGSGTQFTLTISDVQCDDAATYYCLGGYWTTSDNNVFGGGTEVVVK | 0.051 A450 | < 1% | < 1% | 100% | 100% | 4.13e+11 M⁻¹ | 5.26e+08 M⁻¹
rabbit monoclonal anti-mouse/human Id3, clone #BCH-4/#42-1 (antibody, V domains shown, Rabbit IgG from a rabbit hybridoma; also called m/h Id3 MoAb 42-1) VH: QSVEESGGRLVTPGTPLTLTCTASGFSLSSYYIHWVRQAPGKALEWIGYISDGGTTYYASWAKGRFTISKTSSTTVDLKMTSLTTEDTATYFCARQGFNIWGPGTLVTVSL VL: AVLTQTPSPVSAAVGGTVTISCQSSQSVYNNNWLSWFQQKSGQPPKLLIYETSKLESGVPSRFKGSGSGTQFTLTIIDVQCDDAATYYCLGGYWSTSDNNIFGGGTEVVVK | 0.044 A450 | < 1% | < 1% | 100% | 100% |  | 
